This note sets out measurements from article PMC10681739, “High-throughput data and modeling reveal insights into the mechanisms of cooperative DNA-binding by transcription factor proteins”.

To fix the notation:
T1: ETS1 x2 (Homo sapiens, UniProt P14921)
T1 sequence: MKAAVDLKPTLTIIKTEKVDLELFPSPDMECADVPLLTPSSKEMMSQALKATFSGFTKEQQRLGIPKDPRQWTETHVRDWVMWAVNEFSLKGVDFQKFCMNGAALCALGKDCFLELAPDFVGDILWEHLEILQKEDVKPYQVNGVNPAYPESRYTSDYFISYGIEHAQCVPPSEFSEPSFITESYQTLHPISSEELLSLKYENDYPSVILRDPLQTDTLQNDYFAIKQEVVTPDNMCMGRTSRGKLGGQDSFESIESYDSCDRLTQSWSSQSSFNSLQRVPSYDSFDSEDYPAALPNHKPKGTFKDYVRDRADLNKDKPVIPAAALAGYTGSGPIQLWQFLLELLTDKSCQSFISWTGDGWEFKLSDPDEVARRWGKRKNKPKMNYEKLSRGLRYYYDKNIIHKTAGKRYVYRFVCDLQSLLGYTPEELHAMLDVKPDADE

B1: Table S4 A row 1679 (dsDNA)
DNA 1: AGTGTTCACTTCCTGCCCTCCCATTTCCTGAAGGTC
DNA 2: GACCTTCAGGAAATGGGAGGGCAGGAAGTGAACACT
B2: Table S4 A row 2460 (dsDNA)
DNA 1: GGCTGGAAGGCACTTCCGGCGGAAGTTAGAGCTGGG
DNA 2: CCCAGCTCTAACTTCCGCCGGAAGTGCCTTCCAGCC
B3: Table S4 A row 2168 (dsDNA)
DNA 1: CCGGCCTTCCACTTCCGGCGCGGAAGTTGGCGTCAC
DNA 2: GTGACGCCAACTTCCGCGCCGGAAGTGGAAGGCCGG
B4: Table S4 A row 743 (dsDNA)
DNA 1: CCCCACTTCCTGTTGACACAATAGGCAGGATATTAA
DNA 2: TTAATATCCTGCCTATTGTGTCAACAGGAAGTGGGG
B5: Table S4 A row 1194 (dsDNA)
DNA 1: TCGGAACAGTGACTTCCGGCGGAAGAAGAAGCCGGT
DNA 2: ACCGGCTTCTTCTTCCGCCGGAAGTCACTGTTCCGA
B6: Table S4 A row 305 (dsDNA)
DNA 1: GCCGCTTCCTGTTCAGAGGACAGACAGCTTCCTGAC
DNA 2: GTCAGGAAGCTGTCTGTCCTCTGAACAGGAAGCGGC
B7: Table S4 A row 1254 (dsDNA)
DNA 1: TGAAAATGAGCATTTCCTGTTTCCTCAGGCATTTCT
DNA 2: AGAAATGCCTGAGGAAACAGGAAATGCTCATTTTCA
B8: Table S4 A row 2195 (dsDNA)
DNA 1: TGAAGAAGCACCGGAAATGCTTCCGATCGCTTCATA
DNA 2: TATGAAGCGATCGGAAGCATTTCCGGTGCTTCTTCA
B9: Table S4 A row 2202 (dsDNA)
DNA 1: AGGGCGATTTCCGCTTTGTCGCGTTTCCTCAAGGCT
DNA 2: AGCCTTGAGGAAACGCGACAAAGCGGAAATCGCCCT
B10: Table S4 A row 2224 (dsDNA)
DNA 1: GCACTTCCGCCAGAAGCCGGGTGTGTCCTTCCGGGC
DNA 2: GCCCGGAAGGACACACCCGGCTTCTGGCGGAAGTGC
B11: Table S4 A row 2246 (dsDNA)
DNA 1: AAAGCACGACCTTCCGGGACCGGAAGTGCCGGTCGA
DNA 2: TCGACCGGCACTTCCGGTCCCGGAAGGTCGTGCTTT

The target in the data set is T1, ETS1 x2. Nature of the data set: gcPBM; 10 nM ETS1. The note with it: tags: N-terminal GST (pDEST15), kept (PMC6008103); chain copies: 2; label: surface-attached array probe.
With B1, the binding signal is 35600 PBM fluorescence, median of replicate spots.

Take B2: the binding signal was 42900 PBM fluorescence, median of replicate spots.

As to B3, the binding signal was 44800 PBM fluorescence, median of replicate spots.

With B4, the binding signal was 67800 PBM fluorescence, median of replicate spots.

Take B5: the binding signal was 32500 PBM fluorescence, median of replicate spots.

Take B6: the binding signal is 61600 PBM fluorescence, median of replicate spots.

In the case of B7, the binding signal is 31500 PBM fluorescence, median of replicate spots.

Turning to B8, the binding signal is 40400 PBM fluorescence, median of replicate spots.

For the molecule B9, the binding signal is 37800 PBM fluorescence, median of replicate spots.

Turning to B10, the binding signal was 49200 PBM fluorescence, median of replicate spots.

For B11, the binding signal was 28900 PBM fluorescence, median of replicate spots.
